Results on 125 sequences are retold here after the supplement of paper PMC9112550, “Optimization of the antimicrobial peptide Bac7 by deep mutational scanning” (BMC Biology, 2022).

In the data set the test system is Escherichia coli TOP10. In words: shrunken log2 fold change of peptide-encoding DNA abundance (4.5 h post-induction vs induction); higher = less antimicrobial activity (less host growth inhibition). The note with it: time post-induction: 4.5 h; library: site-saturation at positions 5, 18, 19, 20.
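Further: peptides expressed intracellularly from a pBAD plasmid library in pooled LB shake-flask culture, induced with 0.3% L-arabinose, DNA abundance read by NGS, three biological replicates, DESeq2 with apeglm shrinkage.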

In the case of RRIRPRPPRLPRPRPRPGEIPRP, the “shrunken log2 fold change” value was determined as 0.21. Under RRIRTRPPRLPRPRPRPSTGPRP stands -0.285. Under RRIRPRPPRLPRPRPRPAPYPRP stands -0.0601; under RRIRPRPPRLPRPRPRPKKCPRP, -0.352. As for RRIRWRPPRLPRPRPRPQHDPRP, the “shrunken log2 fold change” value is 0.202.

Take RRIRMRPPRLPRPRPRPPHEPRP: the “shrunken log2 fold change” value is 0.445. Under RRIRMRPPRLPRPRPRPKWSPRP stands 0.894; under RRIRIRPPRLPRPRPRPKILPRP, -0.0568; under RRIRKRPPRLPRPRPRPQTEPRP, -0.0229.

As for RRIRARPPRLPRPRPRPWQFPRP, the “shrunken log2 fold change” value was determined as 0.456. Under RRIRTRPPRLPRPRPRPKKNPRP stands 0.409; under RRIRIRPPRLPRPRPRPERGPRP, 0.183. As for RRIRQRPPRLPRPRPRPASDPRP, the figure is 0.197; as for RRIRFRPPRLPRPRPRPKYQPRP, -0.534; as for RRIRRRPPRLPRPRPRPFRLPRP, -0.143. Turning to RRIRCRPPRLPRPRPRPYRAPRP, the “shrunken log2 fold change” value is -0.383. Regarding RRIRCRPPRLPRPRPRPCRFPRP, the “shrunken log2 fold change” value was -0.178. As for RRIRDRPPRLPRPRPRPCGTPRP, the figure is -0.0281.

Regarding RRIRQRPPRLPRPRPRPCRPPRP, the “shrunken log2 fold change” value was -0.184.

With RRIRPRPPRLPRPRPRPMSKPRP, the “shrunken log2 fold change” value is -0.276. Under RRIRARPPRLPRPRPRPYANPRP stands -0.165; under RRIRFRPPRLPRPRPRPVFDPRP, -0.258; under RRIRMRPPRLPRPRPRPAHQPRP, 0.397.

With RRIRRRPPRLPRPRPRPCDVPRP, the “shrunken log2 fold change” value is -0.0838. As for RRIRFRPPRLPRPRPRPGADPRP, the figure is 0.187. As for RRIRTRPPRLPRPRPRPTYDPRP, the figure is -0.311; as for RRIRERPPRLPRPRPRPYVHPRP, -0.00146; as for RRIRTRPPRLPRPRPRPRHQPRP, -0.154. As for RRIRIRPPRLPRPRPRPRKIPRP, the “shrunken log2 fold change” value is -0.413. Under RRIRQRPPRLPRPRPRPVWNPRP stands -0.344; under RRIRPRPPRLPRPRPRPAKRPRP, 0.035. Under RRIRYRPPRLPRPRPRPQPIPRP stands -0.397.

For RRIRLRPPRLPRPRPRPKNLPRP, the “shrunken log2 fold change” value is 0.0548.

Turning to RRIRDRPPRLPRPRPRPNWNPRP, the “shrunken log2 fold change” value is -0.1. As for RRIRDRPPRLPRPRPRPDRAPRP, the figure is 0.281; as for RRIRCRPPRLPRPRPRPRVLPRP, 3.12. With RRIRTRPPRLPRPRPRPFFRPRP, the “shrunken log2 fold change” value worked out at 0.234. As for RRIRWRPPRLPRPRPRPKFEPRP, the figure is 0.2; as for RRIRNRPPRLPRPRPRPDKSPRP, -0.193. Under RRIRWRPPRLPRPRPRPSLWPRP stands 0.575; under RRIRGRPPRLPRPRPRPPVRPRP, 0.859.

As to RRIRFRPPRLPRPRPRPVTFPRP, the “shrunken log2 fold change” value is -0.213.

As to RRIRWRPPRLPRPRPRPMYSPRP, the “shrunken log2 fold change” value was -0.612.

As for RRIRKRPPRLPRPRPRPCNEPRP, the “shrunken log2 fold change” value was -0.00256. Under RRIRDRPPRLPRPRPRPYTVPRP stands -0.00865.

For the sequence RRIRFRPPRLPRPRPRPLAHPRP, the “shrunken log2 fold change” value was -0.13. As for RRIRPRPPRLPRPRPRPFFKPRP, the figure is -0.0682. Take RRIRARPPRLPRPRPRPSQCPRP: the “shrunken log2 fold change” value is -0.121. Under RRIRPRPPRLPRPRPRPYTMPRP stands 0.0535.

Take RRIRFRPPRLPRPRPRPVMCPRP: the “shrunken log2 fold change” value was -0.263. Under RRIRFRPPRLPRPRPRPWSHPRP stands -0.843; under RRIRCRPPRLPRPRPRPKPSPRP, 0.136.

RRIRARPPRLPRPRPRPNGKPRP: the “shrunken log2 fold change” value was determined as 0.3.

For the sequence RRIRMRPPRLPRPRPRPYQDPRP, the “shrunken log2 fold change” value amounted to 0.0259. On to RRIRRRPPRLPRPRPRPGGAPRP, for which the “shrunken log2 fold change” value turned out to be 0.492. On to RRIRVRPPRLPRPRPRPKMYPRP, for which the “shrunken log2 fold change” value was -0.252. Regarding RRIRDRPPRLPRPRPRPDKYPRP, the “shrunken log2 fold change” value is -0.582. Under RRIRRRPPRLPRPRPRPDYWPRP stands 0.0192; under RRIRKRPPRLPRPRPRPWFQPRP, -0.0934; under RRIRNRPPRLPRPRPRPEDNPRP, 0.0315. Under RRIRPRPPRLPRPRPRPMVDPRP stands -0.019; under RRIRCRPPRLPRPRPRPIRYPRP, -1.42. Under RRIRWRPPRLPRPRPRPNMAPRP stands 0.345; under RRIRCRPPRLPRPRPRPQGKPRP, -0.145; under RRIRERPPRLPRPRPRPMRFPRP, -0.0231. For the sequence RRIRCRPPRLPRPRPRPFDAPRP, the “shrunken log2 fold change” value was 0.0524.

For the sequence RRIRVRPPRLPRPRPRPRGTPRP, the “shrunken log2 fold change” value was -0.164.

For the sequence RRIRPRPPRLPRPRPRPVCNPRP, the “shrunken log2 fold change” value was -0.141. Under RRIRARPPRLPRPRPRPRHRPRP stands 0.412; under RRIRGRPPRLPRPRPRPDEPPRP, 1.37; under RRIRLRPPRLPRPRPRPHHCPRP, -0.301.

On to RRIRHRPPRLPRPRPRPKGAPRP, for which the “shrunken log2 fold change” value is -0.011. With RRIRVRPPRLPRPRPRPNDFPRP, the “shrunken log2 fold change” value is -0.0485. Turning to RRIRLRPPRLPRPRPRPVLNPRP, the “shrunken log2 fold change” value was -0.325. Under RRIRLRPPRLPRPRPRPSWYPRP stands -0.294; under RRIRLRPPRLPRPRPRPFPFPRP, -0.254.

As to RRIRYRPPRLPRPRPRPSYNPRP, the “shrunken log2 fold change” value is -0.676. Regarding RRIRTRPPRLPRPRPRPCTDPRP, the “shrunken log2 fold change” value was -0.502. As for RRIRWRPPRLPRPRPRPFEIPRP, the figure is 0.0217. As for RRIRERPPRLPRPRPRPKYWPRP, the “shrunken log2 fold change” value is -0.202. With RRIRRRPPRLPRPRPRPWCIPRP, the “shrunken log2 fold change” value is -0.366. As for RRIRLRPPRLPRPRPRPDKVPRP, the figure is -0.0274. Under RRIRQRPPRLPRPRPRPKEMPRP stands 0.229; under RRIRQRPPRLPRPRPRPMTDPRP, -0.0989; under RRIRVRPPRLPRPRPRPNSRPRP, 0.00966. Under RRIRARPPRLPRPRPRPMDAPRP stands 0.293; under RRIRERPPRLPRPRPRPKIIPRP, 0.357. On to RRIRCRPPRLPRPRPRPVVMPRP, for which the “shrunken log2 fold change” value was -0.138.

As to RRIRCRPPRLPRPRPRPLSRPRP, the “shrunken log2 fold change” value was -0.143. As for RRIRERPPRLPRPRPRPEKSPRP, the figure is -0.14; as for RRIRERPPRLPRPRPRPQTHPRP, -0.359; as for RRIRIRPPRLPRPRPRPQKFPRP, -0.0902. In the case of RRIRFRPPRLPRPRPRPMPKPRP, the “shrunken log2 fold change” value came out at 0.856. Under RRIRIRPPRLPRPRPRPSPAPRP stands -0.11. As for RRIRMRPPRLPRPRPRPEGWPRP, the figure is 3.15.

Consider RRIRKRPPRLPRPRPRPGNGPRP, for which the “shrunken log2 fold change” value was found to be 0.351. As for RRIRERPPRLPRPRPRPCILPRP, the figure is -0.425. Take RRIRFRPPRLPRPRPRPVKAPRP: the “shrunken log2 fold change” value was 0.0979. Under RRIRVRPPRLPRPRPRPKPMPRP stands 0.131; under RRIRKRPPRLPRPRPRPHEAPRP, -0.022; under RRIRIRPPRLPRPRPRPKPMPRP, -0.0736.

RRIRGRPPRLPRPRPRPTMYPRP: the “shrunken log2 fold change” value came out at 0.032. Under RRIRFRPPRLPRPRPRPLLEPRP stands -0.0853; under RRIRQRPPRLPRPRPRPPADPRP, 0.362. As for RRIRDRPPRLPRPRPRPPICPRP, the “shrunken log2 fold change” value is -0.224.

With RRIRVRPPRLPRPRPRPHTTPRP, the “shrunken log2 fold change” value was -0.26. With RRIRDRPPRLPRPRPRPWVPPRP, the “shrunken log2 fold change” value came out at 0.164. As for RRIRRRPPRLPRPRPRPSVSPRP, the figure is -0.0175; as for RRIRLRPPRLPRPRPRPYPSPRP, 0.085. Under RRIRARPPRLPRPRPRPDGPPRP stands 0.455; under RRIRMRPPRLPRPRPRPFFMPRP, -0.121. Under RRIRYRPPRLPRPRPRPMFKPRP stands -0.825; under RRIRTRPPRLPRPRPRPTRCPRP, -0.104; under RRIRHRPPRLPRPRPRPLVHPRP, -0.238. As for RRIRQRPPRLPRPRPRPGIWPRP, the “shrunken log2 fold change” value came to 0.0216. For the sequence RRIRLRPPRLPRPRPRPHHKPRP, the “shrunken log2 fold change” value was -0.644. RRIRDRPPRLPRPRPRPLHSPRP: the “shrunken log2 fold change” value was determined as 0.0372. With RRIRGRPPRLPRPRPRPTYSPRP, the “shrunken log2 fold change” value is -0.0883. As for RRIRGRPPRLPRPRPRPWWLPRP, the “shrunken log2 fold change” value worked out at 0.0131.

Consider RRIRKRPPRLPRPRPRPKLCPRP, for which the “shrunken log2 fold change” value is 0.515. Under RRIRQRPPRLPRPRPRPTWDPRP stands 0.0355; under RRIRQRPPRLPRPRPRPCYQPRP, -0.0254. Take RRIRCRPPRLPRPRPRPCYIPRP: the “shrunken log2 fold change” value is -0.0945. Under RRIRKRPPRLPRPRPRPNWWPRP stands -0.382. As for RRIRARPPRLPRPRPRPEYMPRP, the figure is -0.276.
